For assay [1], the target named is T1, recombinant human TNFalpha (human, UniProt P01375 77-233). As to the kind of experiment: cell-based or functional assay.
The target of assay [2] is T1, recombinant human TNFalpha. Briefly: cell-based or functional assay. This is another data set of the same source.
Assay [3] deals with T2, Human TNFa N-his trimers (His-tagged TNF, produced at ESBATech) (human, UniProt P01375 77-233).
T2 construct: Captured as trimers on a Ni-NTA sensor chip by the N-terminal His tags in the Biacore assay of the general methods; also called human TNFα; human TNF alpha; not shown: N-terminal His tag
T2 sequence (P01375 77-233 limits assumed): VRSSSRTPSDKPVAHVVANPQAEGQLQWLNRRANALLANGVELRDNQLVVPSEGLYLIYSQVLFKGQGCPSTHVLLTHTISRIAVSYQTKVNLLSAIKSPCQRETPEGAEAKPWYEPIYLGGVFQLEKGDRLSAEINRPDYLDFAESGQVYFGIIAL
As to the kind of experiment: SPR (BIAcore), His-tagged human TNF captured on NTA chip, scFv as analyte; units taken from paragraph 184. On the procedure: (§1) For binding affinity measurements at pH5 and pH 7.4 (data not shown), surface Plasmon resonance measurements with BIAcore™-T 100 were employed using a NTA sensor chip and His-tagged TNF (produced at ESBATech). The surface of the NTA sensor chip consists of a carboxymethylated dextran matrix pre-immobilized with nitrilotriacetic acid (NTA) for capture of histidine tagged molecules via Ni2+NTA chelation. Human TNFa N-his trimers (5 nM) are captured by the nickel via their N-terminal his-tags and ESBA105 (analyte) is injected at several concentrations ranging from 30 nM to 0.014 nM in 3 fold serial dilution steps. At the regeneration step, the complex formed by nickel, ligand and analyte is washed away. This allows the use of the same regeneration conditions for different samples. The response signal is generated by surface Plasmon resonance (SPR) technology and measured in resonance units (RU). All the measurements are performed at 25° C. Sensorgrams were generated for each anti-TNF scFv sample after in-line reference cell correction followed by buffer sample subtraction. The apparent dissociation rate constant (kd), the apparent association rate constant (kₐ) and the apparent dissociation equilibrium constant (KD) were calculated using one-to-one Langmuir binding model with BIAcore T100 evaluation Software version 1.1.

Assay [4] has as its target T1, recombinant human TNFalpha. As to the kind of experiment: cell-based or functional assay. The source holds these as a separate data set.
The target in assay [5] is T2, Human TNFa N-his trimers (His-tagged …). As to the kind of experiment: SPR (BIAcore T100), His-tagged human TNF captured on NTA chip, scFv as analyte. On the procedure: as §1
(In general: In SPR one partner is held on a chip, and binding of the other changes the refractive index at the surface.)

Assay [6] addresses T1, recombinant human TNFalpha. As to the kind of experiment: cell-based or functional assay. This is another data set of the same source.
The target of assay [7] is T1, recombinant human TNFalpha. As to the kind of experiment: cell-based or functional assay. The source holds these as a separate data set.
In assay [8] the target is T1, recombinant human TNFalpha. As to the kind of experiment: secretion ELISA on TNFα, bacterial culture supernatant not normalised for single-chain antibody content. A general note: An ELISA detects its analyte on a solid surface through an enzyme-linked reagent.

Where two headings read alike, the source gives them in different places.

Broadly, the Kd is the free concentration of one partner at which half of the binding sites on the other are occupied at equilibrium, for simple one-to-one binding. Read a high Kd as lower affinity. A word on the koff: it is the rate constant with which the complex falls apart. Low readings indicate slow dissociation, high ones fast dissociation. For orientation: kon means the rate constant with which the complex forms. A low value points to slower complex formation.

T1 sequence (P01375 77-233 limits assumed): as above

In the case of Adalimumab (antibody), in assay [1], the IC50, block of cytotoxic activity (human Kym-1 cells, 10 pg/ml TNF) came to 66.2 ng/mL and the IC50, block of cytotoxic activity (murine L929 cells, 1000 pg/ml TNF) amounted to 8.45 ng/mL. In addition, the IC50, block of cytotoxic activity (murine L929 cells, 1000 pg/ml TNF) in assay [2] came out at 8.46 ng/mL.

B1: EP43_max (scFv)
scFv: EIVMTQSPSTLSASVGDRVIIKCQASQSISDWLAWYQQKPGKAPKLLIYGASRLASGFPSRFSGSGSGAEFTLTISGLEPADFATYYCQQGWSDSYVDNLFGQGTKLTVLGGGGGSGGGGSGGGGSGGGGSEVQLVESGGGLVQPGGSLRLSCTVSGFSLSSGAMSWVRQAPGKGLEWVGVIISSGATYYASWAKGRFTISKDTSKNTVYLQMNSLRAEDTAVYYCARGGPDDSNSMGTFDPWGQGTLVTVSS
notes: scFv NH2-VL-(GGGGS)4-VH-COOH; also called 676
Take B1: the Kd is 0.249 nM in assay [3] and 0.251 nM in assay [5]. The figures for the koff in assay [3] and in assay [5] were 5.68e-05 s⁻¹ and 4.48e-05 s⁻¹, respectively. Further, the results for the kon in assay [3] and in assay [5] were 228000 M⁻¹ s⁻¹ and 178000 M⁻¹ s⁻¹, respectively. For the same molecule, the “L929* [EC50-E105/EC50-X], potency relative to ESBA105” value is 6.4 ratio EC50 ESBA105/EC50 X (mass units, ng/ml) in assay [4] and 6.4 ratio EC50 ESBA105/EC50 X (mass units, ng/ml) in assay [6]. Also, the “EC50, L929 potency assay” value in assay [7] stood at 1 ng/mL.

B2: 34min (scFv)
scFv (VL-linker-VH): EIVMTQSPSTLSASVGDRVIITCQSSQSVYGNIWMAWYQQKPGKAPKLLIYQASKLASGVPSRFSGSGSGAEFTLTISSLQPDDFATYYCQGNFNTGDRYAFGQGTKLTVLGGGGGSGGGGSGGGGSGGGGSEVQLVESGGGLVQPGGSLRLSCAASGFTISRSYWICWVRQAPGKGLEWVSCIYGDNDITPLYANWAKGRFTISRDNSKNTLYLQMNSLRAEDTAVYYCAKLGYADYAYDLWGQGTLVTVSS
notes: also called EP34min; EP34_min
Consider B2, for which the binding result in assay [8] is on record as “binds”.

Values taken from US20140193400A1 (ESBATECH AN ALCON BIOMEDICAL RESEARCH UNIT, published 2014).
